Measured values reported in US11969464B2, “Amidated peptides and their deamidated counterparts displayed by HLA-A*02 for use in immunotherapy against different types of cancers” (Immatics Biotechnologies GmbH, priority 2020, dated 2024).

Molecular target: HLA-A*02:01 (Homo sapiens, UniProt P04439, D140Y/D185E/D98H/E176V/E277Q/G131W/G231S/I119V/I121R/I166T/I218V/L300P/L318F/N151K/N90K/P208A/P217A/Q86G/Q94H/R138H/R169H/T345S)
Experiment: MHC binding assay (UV-ligand exchange, anti-β2m ELISA)
Settings: peptide exchange yield, binding to HLA-A*02:01
Source text: Candidate peptides for T cell based therapies according to the present invention were further tested for their MHC binding capacity (affinity). The individual peptide-MHC complexes were produced by UV-ligand exchange, where a UV-sensitive peptide is cleaved upon UV-irradiation and exchanged with the peptide of interest as analyzed. Only peptide candidates that can effectively bind and stabilize the peptide-receptive MHC molecules prevent dissociation of the MHC complexes. To determine the yield of the exchange reaction, an ELISA was performed based on the detection of the light chain (β2m) of stabilized MHC complexes. The assay was performed as generally described in Rodenko et al. (Rodenko et al., 2006).
96 well MAXISorp plates (NUNC) were coated over night with 2 μg/ml streptavidin in PBS at room temperature, washed 4× and blocked for 1 h at 37° C. in 2% BSA containing blocking buffer. Refolded HLA-A*02:01/MLA-001 monomers served as standards, covering the range of 15-500 ng/ml. Peptide-MHC monomers of the UV-exchange reaction were diluted 100-fold in blocking buffer. Samples were incubated for 1 h at 37° C., washed four times, incubated with 2 μg/ml HRP conjugated anti-β2m for 1 h at 37° C., washed again and detected with TMB solution that is stopped with […]. Absorption was measured at 450 nm. Candidate peptides that show a high exchange yield (preferably higher than 50%, most preferred higher than 75%) are generally preferred for a generation and production of antibodies or fragments thereof, and/or T cell receptors or fragments thereof, as they show sufficient avidity to the MHC molecules and prevent dissociation of the MHC complexes.

Substance	Peptide exchange
36 (SLYDFTGEQMAA; peptide displayed by HLA-A*02) [compound 36]	+++ (≥50% = +++)
35 (SLRDGTEVV; peptide displayed by HLA-A*02) [compound 35]	+++ (≥50% = +++)
42 (IQDTSHLAV; peptide displayed by HLA-A*02) [compound 42]	+++ (≥50% = +++)
22 (HMIDLTIHL; peptide displayed by HLA-A*02) [compound 22]	+++ (≥50% = +++)
49 (ALDDYTITF; peptide displayed by HLA-A*02) [compound 49]	++++ (≥75% = ++++)
2 (RLLEGDFSL; peptide displayed by HLA-A*02) [compound 2]	++++ (≥75% = ++++)
43 (KLLNDLTSI; peptide displayed by HLA-A*02) [compound 43]	++++ (≥75% = ++++)
10 (FLGEDISNFL; peptide displayed by HLA-A*02) [compound 10]	++++ (≥75% = ++++)
48 (AIYHDITGISV; peptide displayed by HLA-A*02) [compound 48]	+++ (≥50% = +++)
39 (AVFDQTVTVI; peptide displayed by HLA-A*02) [compound 39]	+++ (≥50% = +++)
41 (FLDTSTADV; peptide displayed by HLA-A*02) [compound 41]	++++ (≥75% = ++++)
38 (AVDGTDARL; peptide displayed by HLA-A*02) [compound 38]	+++ (≥50% = +++)
32 (ALADLTGTVVNL; peptide displayed by HLA-A*02) [compound 32]	++++ (≥75% = ++++)
15 (VLDDTLVIF; peptide displayed by HLA-A*02) [compound 15]	+++ (≥50% = +++)
1 (ILDSTTIEI; peptide displayed by HLA-A*02) [compound 1]	++++ (≥75% = ++++)
31 (TLIDATWLV; peptide displayed by HLA-A*02) [compound 31]	++++ (≥75% = ++++)

Substance	Peptide exchange
17 (NVDSTILNL; peptide displayed by HLA-A*02) [compound 17]	++++ (≥75% = ++++)
16 (KLISDMGKDVSA; peptide displayed by HLA-A*02) [compound 16]	+++ (≥50% = +++)
11 (GLVDGSSVTV; peptide displayed by HLA-A*02) [compound 11]	++++ (≥75% = ++++)
28 (FLLDGTDMFHM; peptide displayed by HLA-A*02) [compound 28]	+++ (≥50% = +++)
46 (SLSDVSQAV; peptide displayed by HLA-A*02) [compound 46]	+++ (≥50% = +++)
29 (KLLDLTVRI; peptide displayed by HLA-A*02) [compound 29]	++++ (≥75% = ++++)
27 (YLFEDISQL; peptide displayed by HLA-A*02) [compound 27]	++++ (≥75% = ++++)
5 (ALPQFFNDV; peptide displayed by HLA-A*02) [compound 5]	++++ (≥75% = ++++)
26 (ILYDGSNIQL; peptide displayed by HLA-A*02) [compound 26]	++++ (≥75% = ++++)
20 (SLFAYPLPDV; peptide displayed by HLA-A*02) [compound 20]	++++ (≥75% = ++++)
18 (ILDEAKDISF; peptide displayed by HLA-A*02) [compound 18]	+++ (≥50% = +++)
44 (LLDATHQI; peptide displayed by HLA-A*02) [compound 44]	++++ (≥75% = ++++)
13 (VLMDGTLKQV; peptide displayed by HLA-A*02) [compound 13]	++++ (≥75% = ++++)
21 (FLNLFDHTL; peptide displayed by HLA-A*02) [compound 21]	++++ (≥75% = ++++)
40 (FLDQTDETL; peptide displayed by HLA-A*02) [compound 40]	+++ (≥50% = +++)

Next, values leading:

Peptide exchange	Substance
+++ (≥50% = +++)	66 (LLDDQTVTF; peptide displayed by HLA-A*02) [compound 66]
++++ (≥75% = ++++)	51 (HLCNHDVSL; peptide displayed by HLA-A*02) [compound 51]
++++ (≥75% = ++++)	55 (KTWDQSIAL; peptide displayed by HLA-A*02) [compound 55]
++++ (≥75% = ++++)	89 (SLFIDVTRV; peptide displayed by HLA-A*02) [compound 89]
++++ (≥75% = ++++)	73 (ALMDVSQNV; peptide displayed by HLA-A*02) [compound 73]
++++ (≥75% = ++++)	72 (ALDSTNSEL; peptide displayed by HLA-A*02) [compound 72]
++++ (≥75% = ++++)	64 (ILFDPDNSSAL; peptide displayed by HLA-A*02) [compound 64]
+++ (≥50% = +++)	93 (YLDGTFRLL; peptide displayed by HLA-A*02) [compound 93]
++++ (≥75% = ++++)	102 (WLIDKSMEL; peptide displayed by HLA-A*02) [compound 102]
++++ (≥75% = ++++)	68 (RLQDTTIGL; peptide displayed by HLA-A*02) [compound 68]
++++ (≥75% = ++++)	87 (NMYDLTFHV; peptide displayed by HLA-A*02) [compound 87]
++++ (≥75% = ++++)	69 (SLLDENDVSSYL; peptide displayed by HLA-A*02) [compound 69]
++++ (≥75% = ++++)	82 (FLNPDGSDCTL; peptide displayed by HLA-A*02) [compound 82]
++++ (≥75% = ++++)	54 (KLEERVYDV; peptide displayed by HLA-A*02) [compound 54]
++++ (≥75% = ++++)	92 (YLADFSHAT; peptide displayed by HLA-A*02) [compound 92]
+++ (≥50% = +++)	78 (AIDQTITEA; peptide displayed by HLA-A*02) [compound 78]
++++ (≥75% = ++++)	63 (GLDRTQLVNV; peptide displayed by HLA-A*02) [compound 63]
++++ (≥75% = ++++)	85 (LLDITNPVL; peptide displayed by HLA-A*02) [compound 85]
++++ (≥75% = ++++)	52 (ILFDDSVFTL; peptide displayed by HLA-A*02) [compound 52]
++++ (≥75% = ++++)	80 (ALDSSLQLL; peptide displayed by HLA-A*02) [compound 80]
++++ (≥75% = ++++)	60 (TLDITIVNL; peptide displayed by HLA-A*02) [compound 60]
++++ (≥75% = ++++)	88 (RLLDETVDVTI; peptide displayed by HLA-A*02) [compound 88]
++++ (≥75% = ++++)	83 (FLNVDVSEV; peptide displayed by HLA-A*02) [compound 83]
++++ (≥75% = ++++)	61 (FISDFTMTI; peptide displayed by HLA-A*02) [compound 61]
++++ (≥75% = ++++)	99 (NLLDHSSMFL; peptide displayed by HLA-A*02) [compound 99]
++++ (≥75% = ++++)	71 (YLGAVFDL; peptide displayed by HLA-A*02) [compound 71]
++ (≥20% =++)	91 (VLKDGTLVI; peptide displayed by HLA-A*02) [compound 91]
++++ (≥75% = ++++)	50 (ALYDSTRELL; peptide displayed by HLA-A*02) [compound 50]
